Experimental data as given in the supplement of paper PMC11316812.
± gives the standard deviation of the averaged measurements.

How the values were obtained:
MCF7 = assay: percentage of EdU-negative (G0-arrested) nuclei per well, 72 h; higher = more G0 arrest; settings: reference: sequence is the full UniProt precursor, the tested protein was the secreted form or ectodomain
hTERT-HMEC = assay: as above; settings: reference: sequence is the full UniProt precursor, the tested protein was the secreted form or ectodomain
[1] = protein concentration 0.03125 µM
[2] = protein concentration 0.3125 µM
[3] = protein concentration 0.01725 µM
[4] = protein concentration 0.1725 µM
[5] = protein concentration 0.0225 µM
[6] = protein concentration 0.0345714 µM
[7] = protein concentration 0.345714 µM
[8] = protein concentration 0.01625 µM
[9] = protein concentration 0.1625 µM
[10] = protein concentration 0.017475 µM
[11] = protein concentration 0.17475 µM
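Further: secreted proteins added to cultured cells, EdU pulse at the end, nuclei found by Hoechst imaging, EdU status from nuclear versus surrounding ring intensity ratio, PBS as neutral control.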

Sequence	percentage of EdU-negative (MCF7; [5]) [%]	percentage of EdU-negative (MCF7; protein concentration 0.225 µM) [%]	percentage of EdU-negative (hTERT-HMEC; [5]) [%]	percentage of EdU-negative (hTERT-HMEC; protein concentration 0.225 µM) [%]	further results
MESRGPLATSRLLLLLLLLLLRHTRQGWALRPVLPTQSAHDPPAVHLSNGPGQEPIAVMTFDLTKITKTSSSFEVRTWDPEGVIFYGDTNPKDDWFMLGLRDGRPEIQLHNHWAQLTVGAGPRLDDGRWHQVEVKMEGDSVLLEVDGEEVLRLRQVSGPLTSKRHPIMRIALGGLLFPASNLRLPLVPALDGCLRRDSWLDKQAEISASAPTSLRSCDVESNPGIFLPPGTQAEFNLRDIPQPHAEPWAFSLDLGLKQAAGSGHLLALGTPENPSWLSLHLQDQKVVLSSGSGPGLDLPLVLGLPLQLKLSMSRVVLSQGSKMKALALPPLGLAPLLNLWAKPQGRLFLGALPGEDSSTSFCLNGLWAQGQRLDVDQALNRSHEIWTHSCPQSPGNGTDASH					percentage of EdU-negative (MCF7; [1]): 21.8 ± 3%; percentage of EdU-negative (MCF7; [2]): 23.55 ± 0.15%; percentage of EdU-negative (hTERT-HMEC; [1]): 4.94 ± 0.58%; percentage of EdU-negative (hTERT-HMEC; [2]): 17.6 ± 1.6%
MESRVLLRTFCLIFGLGAVWGLGVDPSLQIDVLTELELGESTTGVRQVPGLHNGTKAFLFQDTPRSIKASTATAEQFFQKLRNKHEFTILVTLKQTHLNSGVILSIHHLDHRYLELESSGHRNEVRLHYRSGSHRPHTEVFPYILADDKWHKLSLAISASHLILHIDCNKIYERVVEKPSTDLPLGTTFWLGQRNNAHGYFKGIMQDVQLLVMPQGFIAQCPDLNRTCPTCNDFHGLVQKIMELQDILAKTSAKLSRAEQRMNRLDQCYCERTCTMKGTTYREFESWIDGCKNCTCLNGTIQCETLICPNPDCPLKSALAYVDGKCCKECKSICQFQGRTYFEGERNTVYSSSGVCVLYECKDQTMKLVESSGCPALDCPESHQITLSHSCCKVCKGYDFCSERHNCMENSICRNLNDRAVCSCRDGFRALREDNAYCEDIDECAEGRHYCRENTMCVNTPGSFMCICKTGYIRIDDYSCTEHDECITNQHNCDENALCFNTVGGHNCVCKPGYTGNGTTCKAFCKDGCRNGGACIAANVCACPQGFTGPSCETDIDECSDGFVQCDSRANCINLPGWYHCECRDGYHDNGMFSPSGESCEDIDECGTGRHSCANDTICFNLDGGYDCRCPHGKNCTGDCIHDGKVKHNGQIWVLENDRCSVCSCQNGFVMCRRMVCDCENPTVDLFCCPECDPRLSSQCLHQNGETLYNSGDTWVQNCQQCRCLQGEVDCWPLPCPDVECEFSILPENECCPRCVTDPCQADTIRNDITKTCLDEMNVVRFTGSSWIKHGTECTLCQCKNGHICCSVDPQCLQEL					percentage of EdU-negative (MCF7; [3]): 24.4 ± 2.6%; percentage of EdU-negative (MCF7; [4]): 28.9 ± 0.7%; percentage of EdU-negative (hTERT-HMEC; [3]): 5.41 ± 0.14%; percentage of EdU-negative (hTERT-HMEC; [4]): 12.7 ± 0.33%
MESSRVRLLPLLGAALLLMLPLLGTRAQEDAELQPRALDIYSAVDDASHEKELIEALQEVLKKLKSKRVPIYEKKYGQVPMCDAGEQCAVRKGARIGKLCDCPRGTSCNSFLLKCL	28.1 ± 1.3	24.6 ± 0.93	5.12 ± 0.53	5.36 ± 0.64	
METPAWPRVPRPETAVARTLLLGWVFAQVAGASGTTNTVAAYNLTWKSTNFKTILEWEPKPVNQVYTVQISTKSGDWKSKCFYTTDTECDLTDEIVKDVKQTYLARVFSYPAGNVESTGSAGEPLYENSPEFTPYLETNLGQPTIQSFEQVGTKVNVTVEDERTLVRRNNTFLSLRDVFGKDLIYTLYYWKSSSSGKKTAKTNTNEFLIDVDKGENYCFSVQAVIPSRTVNRKSTDSPVECMGQEKGEFREIFYIIGAVVFVVIILVIILAISLHKCRKAGVGQSWKENSPLNVS					percentage of EdU-negative (MCF7; [6]): 24.03 ± 0.11%; percentage of EdU-negative (MCF7; [7]): 22.3 ± 1.8%; percentage of EdU-negative (hTERT-HMEC; [6]): 4.27 ± 0.75%; percentage of EdU-negative (hTERT-HMEC; [7]): 6.032 ± 0.015%
MEVTCLLLLALIPFHCRGQGVYAPAQAQIVHAGQACVVKEDNISERVYTIREGDTLMLQCLVTGHPRPQVRWTKTAGSASDKFQETSVFNETLRIERIARTQGGRYYCKAENGVGVPAIKSIRVDVQYLDEPMLTVHQTVSDVRGNFYQEKTVFLRCTVNSNPPARFIWKRGSDTLSHSQDNGVDIYEPLYTQGETKVLKLKNLRPQDYASYTCQVSVRNVCGIPDKAITFRLTNTTAPPALKLSVNETLVVNPGENVTVQCLLTGGDPLPQLQWSHGPGPLPLGALAQGGTLSIPSVQARDSGYYNCTATNNVGNPAKKTVNLLVRSMKNATFQITPDVIKESENIQLGQDLKLSCHVDAVPQEKVTYQWFKNGKPARMSKRLLVTRNDPELPAVTSSLELIDLHFSDYGTYLCMASFPGAPVPDLSVEVNISSETVPPTISVPKGRAVVTVREGSPAELQCEVRGKPRPPVLWSRVDKEAALLPSGLPLEETPDGKLRLERVSRDMSGTYRCQTARYNGFNVRPREAQVQLNVQFPPEVEPSSQDVRQALGRPVLLRCSLLRGSPQRIASAVWRFKGQLLPPPPVVPAAAEAPDHAELRLDAVTRDSSGSYECSVSNDVGSAACLFQVSAKAYSPEFYFDTPNPTRSHKLSKNYSYVLQWTQREPDAVDPVLNYRLSIRQLNQHNAVVKAIPVRRVEKGQLLEYILTDLRVPHSYEVRLTPYTTFGAGDMASRIIHYTEPINSPNLSDNTCHFEDEKICGYTQDLTDNFDWTRQNALTQNPKRSPNTGPPTDISGTPEGYYMFIETSRPRELGDRARLVSPLYNASAKFYCVSFFYHMYGKHIGSLNLLVRSRNKGALDTHAWSLSGNKGNVWQQAHVPISPSGPFQIIFEGVRGPGYLGDIAIDDVTLKKGECPRKQTDPNKVVVMPGSGAPCQSSPQLWGPMAIFLLALQR [Q8NFP4]					percentage of EdU-negative (MCF7; [8]): 25.1 ± 2%; percentage of EdU-negative (MCF7; [9]): 26.2 ± 1.5%; percentage of EdU-negative (hTERT-HMEC; [8]): 4.84 ± 1.1%; percentage of EdU-negative (hTERT-HMEC; [9]): 5.63 ± 0.16%
MEWPARLCGLWALLLCAGGGGGGGGAAPTETQPPVTNLSVSVENLCTVIWTWNPPEGASSNCSLWYFSHFGDKQDKKIAPETRRSIEVPLNERICLQVGSQCSTNESEKPSILVEKCISPPEGDPESAVTELQCIWHNLSYMKCSWLPGRNTSPDTNYTLYYWHRSLEKIHQCENIFREGQYFGCSFDLTKVKDSSFEQHSVQIMVKDNAGKIKPSFNIVPLTSRVKPDPPHIKNLSFHNDDLYVQWENPQNFISRCLFYEVEVNNSQTETHNVFYVQEAKCENPEFERNVENTSCFMVPGVLPDTLNTVRIRVKTNKLCYEDDKLWSNWSQEMSIGKKRNSTLYITMLLIVPVIVAGAIIVLLLYLKRLKIIIFPPIPDPGKIFKEMFGDQNDDTLHWKKYDIYEKQTKEETDSVVLIENLKKASQ					percentage of EdU-negative (MCF7; [10]): 26.4 ± 0.86%; percentage of EdU-negative (MCF7; [11]): 26.6 ± 2%; percentage of EdU-negative (hTERT-HMEC; [10]): 5.5 ± 0.74%; percentage of EdU-negative (hTERT-HMEC; [11]): 5.19 ± 0.27%
MEYQILKMSLCLFILLFLTPGILCICPLQCICTERHRHVDCSGRNLSTLPSGLQENIIHLNLSYNHFTDLHNQLTQYTNLRTLDISNNRLESLPAHLPRSLWNMSAANNNIKLLDKSDTAYQWNLKYLDVSKNMLEKVVLIKNTLRSLEVLNLSSNKLWTVPTNMPSKLHIVDLSNNSLTQILPGTLINLTNLTHLYLHNNKFTFIPDQSFDQLFQLQEITLYNNRWSCDHKQNITYLLKWMMETKAHVIGTPCSTQISSLKEHNMYPTPSGFTSSLFTVSGMQTVDTINSLSVVTQPKVTKIPKQYRTKETTFGATLSKDTTFTSTDKAFVPYPEDTSTETINSHEAAAATLTIHLQDGMVTNTSLTSSTKSSPTPMTLSITSGMPNNFSEMPQQSTTLNLWREETTTNVKTPLPSVANAWKVNASFLLLLNVVVMLAV	24.1 ± 0.32	27.6 ± 1.6	5.851 ± 0.022	10.4 ± 1.5	
MFCPLKLILLPVLLDYSLGLNDLNVSPPELTVHVGDSALMGCVFQSTEDKCIFKIDWTLSPGEHAKDEYVLYYYSNLSVPIGRFQNRVHLMGDILCNDGSLLLQDVQEADQGTYICEIRLKGESQVFKKAVVLHVLPEEPKELMVHVGGLIQMGCVFQSTEVKHVTKVEWIFSGRRAKEEIVFRYYHKLRMSVEYSQSWGHFQNRVNLVGDIFRNDGSIMLQGVRESDGGNYTCSIHLGNLVFKKTIVLHVSPEEPRTLVTPAALRPLVLGGNQLVIIVGIVCATILLLPVLILIVKKTCGNKSSVNSTVLVKNTKKTNPEIKEKPCHFERCEGEKHIYSPIIVREVIEEEEPSEKSEATYMTMHPVWPSLRSDRNNSLEKKSGGGMPKTQQAF [Q86YT9]	23.21 ± 0.041	24.8 ± 2.1	4.64 ± 0.38	5.35 ± 1.2	
MFFWCACCLMVAWRVSASDAEHCPELPPVDNSIFVAKEVEGQILGTYVCIKGYHLVGKKTLFCNASKEWDNTTTECRLGHCPDPVLVNGEFSSSGPVNVSDKITFMCNDHYILKGSNRSQCLEDHTWAPPFPICKSRDCDPPGNPVHGYFEGNNFTLGSTISYYCEDRYYLVGVQEQQCVDGEWSSALPVCKLIQEAPKPECEKALLAFQESKNLCEAMENFMQQLKESGMTMEELKYSLELKKAELKAKLL	24.2 ± 1.2	27.8 ± 3.5	5.33 ± 0.68	12 ± 1.5	
MFHQIWAALLYFYGIILNSIYQCPEHSQLTTLGVDGKEFPEVHLGQWYFIAGAAPTKEELATFDPVDNIVFNMAAGSAPMQLHLRATIRMKDGLCVPRKWIYHLTEGSTDLRTEGRPDMKTELFSSSCPGGIMLNETGQGYQRFLLYNRSPHPPEKCVEEFKSLTSCLDSKAFLLTPRNQEACELSNN	23.57 ± 0.056	30.2 ± 0.5	4.08 ± 0.27	9.42 ± 0.84	
